Measurements reported in the supplement of paper PMC9170038.

System: MS2 coat protein
Test: apparent KD of MS2 coat protein; higher = weaker reporter binding
Details: Eterna round: R107
Description: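 RNA-MaP round R107: designed RNA switches with theophylline, tryptophan, arginine or FMN aptamers are transcribed on-chip within common flanks. They are titrated with SNAP-549-labelled MS2 coat protein in RNA-MaP buffer (100 mM Tris pH 7.5, 80 mM KCl, 4 mM MgCl2), without ligand or with the indicated ligand. Median apparent KD per design.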

[1] = input ligand: theophylline 20 uM
[2] = input ligand: theophylline 2 mM
[3] = input ligand: tryptophan 2.4 mM

Sequence	apparent KD of MS2 coat protein (input ligand: arginine 13.2 mM) [nM]	apparent KD of MS2 coat protein (input ligand: none) [nM]	apparent KD of MS2 coat protein [1] [nM]	apparent KD of MS2 coat protein [2] [nM]	apparent KD of MS2 coat protein [3] [nM]
UCCUACACGGAGACGUGUAGGAGUAAUGAUACCAGCAUGGAGACAUGCCCUUGGCAGCGUUACAUGAGGAUCACCCAUGUGGUGC [ETHA #7]	14.7	16.3	26.2	270	17.7
ACAUGAAGAACAGCGGUGGGCGCGCUCGAUACCAGUACUUUGAUAUACCCUUGGCAGCGACAUGAGGAUCACCCAUGUGAGAUGA [XTheo A #2]	16		23.9		18.1
UGUAUGUGAUCUGAUACCAGCUAAUAAAGCUUGAGGAUCACCCAAGUGGAGCGGAAACGCAGCCCUUGGCAGCAGAUCGCAUACU [Denovo 8 #StaticStem #AlternativeMS2]	189	169	103	9.93	224
GAGGAAACUCACAUGAGGAUCACCCAUGUACGAGGACCGGUACGGCCGCCACUCGAAACCAUGGGCGGUUGUACAUGGAAACAUG [Design 2]	21.4		33.3	34.9	
GGACUAACCAGAAGGAGCGGCGCGCAGAAACUGCAAAUUCCUCCGCACGAGGAUCACCCGUGUCAGGUAGGUCGCUGGUUAGUCG [ArgBX 28]	14.2	14.2	17.9	16.6	17.5
AGAGGUGCAACAGAUACCAGUCUACCGUACCUCAGAGAACAUGAGGAUCACCCAUGUAUAGACCCUUGGCAGCUGAUGUUAUUCA [Theo B Ex t3]	25.7		36.7		22.4
ACUACAAAGUAGUAUAUACGAAAGUAUAGACGAGGACCGGUACGGCCGCCACUCGGUACCGGAAACACAUGAGGAUCACCCAUGU [Ex_TrypA - 3H]	17		25	23	
AAAGGAAGGUAAAAUAAAACUACAUGUGAAGGAGCGCGCGAAAGCGCAGGUAGGUCGCACAUGAGGAUCACCCAUGUCCUUCCAA [MAT - Exclusion Arginine A - Mod of Eli - D4]	112	104	181	129	96.8
GGUCUCUGGAGCGAUACCAGCUUGAUCGUACUGGCCUGGUACAUGAGGAUCACCCAUGUAAGCCCUUGGCAGCGCUCCAGAGACC [#1 Exclusion - Theophylline B Attempt #8 (HarryS)]	11.8		16.3		11.2
UGGUUUGUGAUGGAUACCAGCAGAGAAAACGUUUAUCCUAACAUGAGGAUCACCCAUGUAUGCCCUUGGCAGCUGUUGUGGGCUG [8.T]	31.9		49.5		30.4
CCAUAAGUAACUGAUACCAGUGUACUGACAUGAGGAUCACCCAUGUUGGGUUUUGUUGUACACCCUUGGCAGCAGAAUCUUGUGG [AstrosExyTheB#16]	43.9		70.1		54.3
GGCCUGUGGUGCGAUACCAGCUUGAGUGUACUGGCCAGGUACAUGAGGAUCACCCAUGUAAGCCCUUGGCAGCGCGUCAGAGGCC [#1 Exclusion - Theophylline B Attempt #19 (HarryS)]	13.5	8.82	16.9	30.3	12.1
GUGCUGGUAUCGGCCGCCACUGUAACAUGACAUCCCAGGGCCGACAUGAGGAUCACCCAUGUUAACAGGACCGGGAUAUCAACGA [Riorquen]	13.2		28.9	19.5	
AUGCGCUAUAUGGAUACCAGUAUGAUAAUUGACAUGAGGAUCACCCAUGUGAGCUCUACCUACCCUUGGCAGCCAACCCUAUUUG [theeternabot_sameState_MS2_Theo_B_26]	21.7		29.9		23
AGAUCUUUCGAAAGAAGGAUAAUGGCUGAUACCAGAGACGAAAGUCUCCCUUGGCAGCAGUGCCAACAUGAGGAUCACCCAUGUA [Theophylline A 14]	110		164		178
CCACAUGAGGAUCACCCAUGUAUAGUUGAAGGAGCGAUCAUUAGGUCAGGUAGGUCGCAGCACAUGAGGAUCACCCAUGUCGAAA [DOUBLE!!! :-D #3]	41.2	64.8	60.9	72.8	58.4
AAGGGUGGGUCUCUAAUCCGUUUGACGGAUACCAGCGAGAGAUAUCGCCCUUGGCAGCCGACGACAUGAGGAUCACCCAUGUAAA [#05 Exclusion-TheophyllineA]	16.8	18.7	22.5	34.8	15.8
GAGCUCGUGGACUGGCGUGCUCCGCUCCGUCGAGGACCGGUACGGCCGCCACUCGACAUGAGGAUCACCCAUGUGUGAGCUCGCG [#1 Exclusion - Tryptophan A Attempt #20 (HarryS)]	35.3		193	134	
CCCUCGUCAACGGCCGCCACUGUGAUUCACUAAGAUAAUAUUGCACAUGAGGAUCACCCAUGUCUCAGGACCGGGUUGGUGUGUC [theeternabot_sameState_MS2_Trp_B_38]	82		128	131	

Sequence	apparent KD of MS2 coat protein (input ligand: arginine 13.2 mM) [nM]	apparent KD of MS2 coat protein (input ligand: none) [nM]	apparent KD of MS2 coat protein [1] [nM]	apparent KD of MS2 coat protein [2] [nM]	apparent KD of MS2 coat protein [3] [nM]
UGUAUGUGAUUUGAUACCAGACCAGCUGGUGGUAUCUGAGGAUCACCCAGGUAGGUUUGGGUCCCUUGGCAGCAAAUCGCAUACU [SS Theo B #24 Ms15]	145	186	892	335	1720
UAGUAACAUGAGGAUCACCCAUGUCCGGAUACCAGACAUAUACCAGUCCCUUGGCAGCCGCCAGUUAAAAUCUAACACAAAAGUU [theeternabot_sameState_MS2_Theo_A_34]	38.8		55		34.4
ACUUCAUGAGGUGAUACCAGCCAAUGACAUGAGGACAUGAGGAUCACCCAUGUUUAUGUAGGCCCUUGGCAGCACUGUAACAUGA [Same State Theophylline B 4]	19.5		31.8		19.7
CCGAACAUGAGGAUCACCCAUGUAUCCGAGCGAGGACCGGUACGGCCGCCACUCGAACUGCACCGGAAAAGGGAAACACCGAUCC [theeternabot_sameState_MS2_Trp_A_9]	33.4		95.7	69.3	
CACGGAUGAGUGGAUCACCCUCGUAAUAACCGAGGACCGGUACGGCCGCCACUCGAAAACCGUGACCUGUACGAAAAGUGCAGGA	56.7	36.5	399	1500	39.8
UACAUGAGGAUCACCCAUGUAUAGAGGGAUACCAGUGUCAGUGAGCACCCUUGGCAGCCCGCGAACAAUGGGUGCGCUAAAUAGU [#19 Exclusion-TheophyllineA]	23.2		75.3		32.4
ACAUGAGGAUCACCCAUGUAAAUAACGGAAGGAGCGUGCAAAAGCACAGGUAGGUCGCCGAUAUAAAUAUUGGGUAUUAUAUUAU [AstrosExyArgA#2]	23.9	33.6	39.3	29	28.5
UUAGAUAUGACAGAUACCAGCGUGUUAUAAAACAUGAGGAUCACCCAUGUAGUGAUCGAGCGCCCUUGGCAGCUGGUGUGUUUGG [7.R]	69.7		175		148
AGAUUCGACACGGCCGCCACUCGUGCCGGAUUACCGAGUGUCGAACAUGAGGAUCACCCAUGUACGAGGACCGGGUGUUGAGUCU [XTryp B #17]	35.1		53.9	48.1	
UUCAGCUAGUCGGCCGCCACUACUUGAGGAUCACCCAGGUAAUCCUAACACUGCUUCGGCAGUGGUAGGACCGGGACUAGCUGAG	24	19	21.6	24.5	103
GUAGCGACGACGGCCGCCACUCACACGAGAGGGUAGACCAACCUUCACAUGAGGAUCACCCAUGUGAGGACCGGGUUGUCGGUAC [Exclusion - Tryptophan B]	20		26.6	33	
ACCUCACUCUCUGAUACCAGCUAACAACAUGAGGAUCACCCAUGUCAGACUUGUAUUGAUAGCCCUUGGCAGCAGAGGUAACUGC [#16 Exclusion-TheophyllineB]	13.9		21.2		16.8
ACGUUUUAGUCGGCCGCCACUGAUCUCAUGUUCAACAUGAGGAUCACCCAUGUACCUUUUUUUAUCAGGACCGGGACGUAAUAGA [JR_SSTryptoB_Sub005]	85		328	359	
CGAAUACUGAGUGAUACCAGUGAAAGAUAACUGUAUACACAUGAGGAUCACCCAUGUACACACCCUUGGCAGCACACUAGAUCGA [Same State Theophylline B GF 2]	25.8		40		29.9
CUGCUACAUACGGCCGCCACUUUAAACAUGAGGAUCACCCAUGUACGGAAGGGUGGUAAAUGUUAAAGGACCGGGUAUGUAGCAA [Tryp B Ex t1]	64.4		296	293	
UGACAUUGCUCAGAUACCAGACUUGAGGAUCACCCAAGUGCCAACAAGUAUAUAAUAAAAGUCCCUUGGCAGCUGAGCAAUGUCU [TheoBX 18#MS2Left #AlternativeMS2 #Theo2]	42.7	28	28.6	137	17.5
AUUAAUAGUUGUGAUACCAGACUUACAUGAGGAUCACCCAUGUUACUUAAGUGUUUUGAUGUCCCUUGGCAGCACUGUUUAGUUA [JR_SSTheophyB_Sub016]	24.3		33		25
CCUGCUACGGGAAACCGUAGCAGGAAUGAUACCAGUAGGAAAGACUACCCUUGGCAGCAUGGGUAACAUGAGGAUCACCCAUGUU [SSThA NP+V+V2 #6 Same Structure]	70.9	132	124	87.9	66
